B1: F-box/WD repeat-containing protein 1A (Homo sapiens), Q9Y297 (parent)
chain: MDPAEAVLQEKALKFMCSMPRSLWLGCSSLADSMPSLRCLYNPGTGALTAFQNSSEREDCNNGEPPRKIIPEKNSLRQTYNSCARLCLNQETVCLASTAMKTENCVAKTKLANGTSSMIVPKQRKLSASYEKEKELCVKYFEQWSESDQVEFVEHLISQMCHYQHGHINSYLKPMLQRDFITALPARGLDHIAENILSYLDAKSLCAAELVCKEWYRVTSDGMLWKKLIERMVRTDSLWRGLAERRGWGQYLFKNKPPDGNAPPNSFYRALYPKIIQDIETIESNWRCGRHSLQRIHCRSETSKGVYCLQYDDQKIVSGLRDNTIKIWDKNTLECKRILTGHTGSVLCLQYDERVIITGSSDSTVRVWDVNTGEMLNTLIHHCEAVLHLRFNNGMMVTCSKDRSIAVWDMASPTDITLRRVLVGHRAAVNVVDFDDKYIVSASGDRTIKVWNTSTCEFVRTLNGHKRGIACLQYRDRLVVSGSSDNTIRLWDIECGACLRVLEGHEELVRCIRFDNKRIVSGAYDGKIKVWDLVAALDPRAPAGTLCLRTLVEHSGRVFRLQFDEFQIVSSSHDDTILIWDFLNDPAAQAEPPRSPSRTYTYISR

Variants of: B1
Conditions: with mdm2_human MDM2, Q00987
Chain of mdm2_human MDM2, Q00987 (Q00987 whole entry, looked up): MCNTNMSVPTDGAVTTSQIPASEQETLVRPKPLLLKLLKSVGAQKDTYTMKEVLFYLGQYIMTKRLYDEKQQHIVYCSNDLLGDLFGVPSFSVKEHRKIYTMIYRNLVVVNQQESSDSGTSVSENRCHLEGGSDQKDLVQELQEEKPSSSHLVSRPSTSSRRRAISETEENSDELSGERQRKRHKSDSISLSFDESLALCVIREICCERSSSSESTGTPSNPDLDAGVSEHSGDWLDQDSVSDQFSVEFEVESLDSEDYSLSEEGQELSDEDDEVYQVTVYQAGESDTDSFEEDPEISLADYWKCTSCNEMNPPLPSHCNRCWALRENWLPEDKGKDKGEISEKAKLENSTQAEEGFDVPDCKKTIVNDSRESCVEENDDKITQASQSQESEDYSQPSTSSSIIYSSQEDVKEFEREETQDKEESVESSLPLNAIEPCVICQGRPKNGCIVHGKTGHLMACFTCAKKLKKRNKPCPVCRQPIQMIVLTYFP

| Variant | effect of a mutation on the interaction |
| --- | --- |
| R475A | decreasing interaction |

From IntAct's records for PubMed 20708156
